Experimental data taken from FireProtDB.
Values joined by “and” are separate entries in the source; they are usually repeats but may differ in a detail not shown here. Equal entries are not always repeated.

Conditions: whole UniProt chain shown
[1] = Thermotoga maritima (strain ATCC 43589 / DSM 3109 / JCM 10099 / NBRC 100826 / MSB8), pH 7.4, 25 °C, GdnHCl, CD, sodium phosphate, transition: 2, reversible: yes
[2] = Sus scrofa, pH 6.5, Thermal, DSC, Sodium phosphate 5 mM, reversible: yes
[3] = Thermus thermophilus, pH 7, Thermal, Fluorescence, potassium phosphate 50 mM, DTT 1 mM, reversible: yes
[4] = Thermus thermophilus (strain ATCC 27634 / DSM 579 / HB8), pH 5.5, 25 °C, Urea, CD, NaOAc 20 mM, KCl 50 mM, reversible: yes
[5] = Thermus thermophilus (strain ATCC 27634 / DSM 579 / HB8), pH 5.5, Thermal, CD, Sodium acetate 5 mM, KCl 50 mM, reversible: yes
[6] = Thermotoga maritima (strain ATCC 43589 / DSM 3109 / JCM 10099 / NBRC 100826 / MSB8), pH 6, 29 °C, Thermal, CD, sodium phosphate 50 mM, reversible: yes

B1: Glutathione S-transferase P wild type, P80031 (protein)
chain: PPYTITYFPVRGRCEAMRMLLADQDQSWKEEVVTMETWPPLKPSCLFRQLPKFQDGDLTLYQSNAILRHLGRSFGLYGKDQKEAALVDMVNDGVEDLRCKYATLIYTNYEAGKEKYVKELPEHLKPFETLLSQNQGGQAFVVGSQISFADYNLLDLLRIHQVLNPSCLDAFPLLSAYVARLSARPKIKAFLASPEHVNRPINGNGKN
Q: Which unfolding free energy (Sus scrofa, pH 6.5, 20 °C, GdnHCl, CD, Mes-NaOH 20 mM, NaCl 0.1 M) does the source give for B1 here?
A: 11.6 kcal/mol and 22.5 kcal/mol

B2: Malate dehydrogenase, cytoplasmic wild type, P11708 (protein)
chain: MSEPIRVLVTGAAGQIAYSLLYSIGNGSVFGKDQPIILVLLDITPMMGVLDGVLMELQDCALPLLKDVIATDKEEIAFKDLDVAILVGSMPRRDGMERKDLLKANVKIFKCQGAALDKYAKKSVKVIVVGNPANTNCLTASKSAPSIPKENFSCLTRLDHNRAKAQIALKLGVTSDDVKNVIIWGNHSSTQYPDVNHAKVKLQAKEVGVYEAVKDDSWLKGEFITTVQQRGAAVIKARKLSSAMSAAKAICDHVRDIWFGTPEGEFVSMGIISDGNSYGVPDDLLYSFPVTIKDKTWKIVEGLPINDFSREKMDLTAKELAEEKETAFEFLSSA
Q: For B2, which unfolding free energy (Sus scrofa, pH 7.5, 25 °C, GdnHCl, Fluorescence, TEA 50 mM, MgCl2 20 mM, transition: 3) is on record?
A: 5.9 kcal/mol and 6.4 kcal/mol

B3: wild type, Q9WZ62 (protein)
chain: MKKLLAVSILLVSIVIFSGAIDEIKSRGYLLVGLSADFPPFEFVDENGNIVGFDVDLAKEIARRLGVELKIVDMTFDGLIPSLLTKKIDVIISGMTITEERKKVVAFSDPYFDAGQVIVVRKDSDFRPKTYEDLVGKTVAVQIGTTGDIEVSKYDGIKVVRFDKFTDAFLELKRGRADAVVLDSATARAFVAKNPDLVISSGVLSSEQYGIAVRKEDTDLLEFINSVLRELKKSPYDVLIEKWFSE
Q: Which denaturant m value [1] does the source give for B3 here?
A: 2.63 kcal/mol/M and 2.86 kcal/mol/M

Q: What about the “denaturant midpoint (higher = more stable)” value [1] of the same protein?
A: 5 M and 4.5 M

Q: And the unfolding free energy [1]?
A: 12.9 kcal/mol and 13.1 kcal/mol

B4: Dihydrofolate reductase wild type, Q60034 (protein)
chain: MAKVIFVLAMDVSGKIASSVESWSSFEDRKNFRKITTEIGNVVMGRITFEEIGRPLPERLNVVLTRRPKTSNNPSLVFFNGSPADVVKFLEGKGYERVAVIGGKTVFTEFLREKLVDELFVTVEPYVFGKGIPFFDEFEGYFPLKLLEMRRLNERGTLFLKYSVEKSHR
Q: With B4 as the protein, how does the denaturant m value (Thermotoga maritima (strain ATCC 43589 / DSM 3109 / JCM 10099 / NBRC 100826 / MSB8), pH 7.8, 5 °C, GdnHCl, CD, Potassium phosphate 10 mM, reversible: yes) read?
A: 13.2 kcal/mol/M

Q: What about the denaturant m value (Thermotoga maritima (strain ATCC 43589 / DSM 3109 / JCM 10099 / NBRC 100826 / MSB8), pH 7.8, 15 °C, GdnHCl, CD, Potassium phosphate 10 mM, reversible: yes) of the same protein?
A: 9.4 kcal/mol/M

Q: And the denaturant m value (Thermotoga maritima (strain ATCC 43589 / DSM 3109 / JCM 10099 / NBRC 100826 / MSB8), pH 7.8, 15 °C, Urea, CD, Potassium phosphate 10 mM, reversible: yes)?
A: 4.71 kcal/mol/M

Q: What about the denaturant m value (Thermotoga maritima (strain ATCC 43589 / DSM 3109 / JCM 10099 / NBRC 100826 / MSB8), pH 7.8, 25 °C, GdnHCl, CD, Potassium phosphate 10 mM, reversible: yes) of the same protein?
A: 7.15 kcal/mol/M

Q: And the denaturant m value (Thermotoga maritima (strain ATCC 43589 / DSM 3109 / JCM 10099 / NBRC 100826 / MSB8), pH 7.8, 37 °C, GdnHCl, CD, Potassium phosphate 10 mM, reversible: yes)?
A: 5.98 kcal/mol/M

Q: And the denaturant m value (Thermotoga maritima (strain ATCC 43589 / DSM 3109 / JCM 10099 / NBRC 100826 / MSB8), pH 7.8, 55 °C, GdnHCl, CD, Potassium phosphate 10 mM, reversible: yes)?
A: 6.24 kcal/mol/M

Q: And the denaturant m value (Thermotoga maritima (strain ATCC 43589 / DSM 3109 / JCM 10099 / NBRC 100826 / MSB8), pH 7.8, 70 °C, GdnHCl, CD, Potassium phosphate 10 mM, reversible: yes)?
A: 7.56 kcal/mol/M

B5: Gastricsin wild type, P30879 (protein)
chain: SVIKVPLKKLKSIRQAMKEKGLLEEFLKTHKYDPAQRYRIGDISVALEPMAYLEAAYFGEISIGTPPQNFLVL
Q: Which Tm [2] does the source give for B5 here?
A: 64.5 °C

Q: And the “heat capacity change of unfolding” value [2]?
A: 6.1 kcal/mol/K

Q: What about the “unfolding enthalpy (calorimetric)” value [2] of the same protein?
A: 256 kcal/mol

Q: What about the “unfolding enthalpy (van 't Hoff)” value [2] of the same protein?
A: 131 kcal/mol

B6: 3-isopropylmalate dehydrogenase wild type, P61495 (protein)
chain: MKVAVLPGDGIGPEVTEAALKVLRALDEAEGLGLAYEVFPFGGAAIDAFGEPFPEPTRKGVEEAEAVLLGSVGGPKWDGLPRKISPETGLLSLRKSQDLFANLRPAKVFPGLERLSPLKEEIARGVDVLIVRELTGGIYFGEPRGMSEAEAWNTERYSKPEVERVARVAFEAARKRRKHVVSVDKANVLEVGEFWRKTVEEVGRGYPDVALEHQYVDAAAMHLVRSPARFDVVVTGNIFGDILSDLASVLPGSLGLLPSASLGRGTPVFEPVHGSAPDIAGKGIANPTAAILSAAMMLEHAFGLVELARKVEDAVAKALLETPPPDLGGSAGTEAFTATVLRHLA
Q: Which results are given for B6?
A: denaturant m value (Thermus thermophilus, pH 7, 27 °C, Urea, Fluorescence, Potassium phosphate 50 mM, transition: 3, reversible: yes): 1.2 kcal/mol/M and 1.41 kcal/mol/M; Tm (Thermus thermophilus, pH 7, Thermal, CD, phosphate 20 mM): 87 °C; Tm (Thermus thermophilus, pH 7, Thermal, CD, sodium phosphate, ammonium sulfate 1.0-1.5 M): 87 °C; Tm [3]: 30.9 °C; heat capacity change of unfolding [3]: 1.73 kcal/mol/K; unfolding enthalpy (van 't Hoff) [3]: 15.8 kcal/mol; Tm (Thermus thermophilus, pH 7.6, Thermal, Activity, potassium phosphate 20 mM, reversible: No): 84.7 °C; Tm (Thermus thermophilus, pH 7.6, Thermal, CD, phosphate 20 mM, reversible: No): 87.4 °C; Tm (Thermus thermophilus, pH 10.4, Thermal, CD, NaHCO3 20 mM): 87 °C

B7: Inorganic pyrophosphatase wild type, P38576 (protein)
chain: MANLKSLPVGDKAPEVVHMVIEVPRGSGNKYEYDPDLGAIKLDRVLPGAQFYPGDYGFIPSTLAEDGDPLDGLVLSTYPLLPGVVVEVRVVGLLLMEDEKGGDAKVIGVVAEDQRLDHIQDIGDVPEGVKQEIQHFFETYKALEAKKGKWVKVTGWRDRKAALEEVRACIARYKG
Q: What does the source list for B7?
A: Tm (Thermus thermophilus (strain ATCC 27634 / DSM 579 / HB8), pH 7, Thermal, CD, HEPES 20 mM, MgCl2 5 mM): 99 °C; Tm (Thermus thermophilus (strain ATCC 27634 / DSM 579 / HB8), pH 7, Thermal, CD, HEPES 20 mM): 86 °C

B8: Ribonuclease H wild type, P29253 (protein)
chain: MNPSPRKRVALFTDGACLGNPGPGGWAALLRFHAHEKLLSGGEACTTNNRMELKAAIEGLKALKEPCEVDLYTDSHYLKKAFTEGWLEGWRKRGWRTAEGKPVKNRDLWEALLLAMAPHRVRFHFVKGHTGHPENERVDREARRQAQSQAKTPCPPRAPTLFHEEA
Q: Which results are given for B8?
A: denaturant m value [4]: 2 kcal/mol/M; unfolding free energy [4]: 12.8 kcal/mol; Tm [5]: 86 °C; heat capacity change of unfolding [5]: 1.8 kcal/mol/K; unfolding enthalpy (van 't Hoff) [5]: 131 kcal/mol

B9: Chemotaxis protein CheY wild type, Q56312 (protein)
chain: MGKRVLIVDDAAFMRMMLKDIITKAGYEVAGEATNGREAVEKYKELKPDIVTMDITMPEMNGIDAIKEIMKIDPNAKIIVCSAMGQQAMVIEAIKAGAKDFIVKPFQPSRVVEALNKVSK
Q: Which “heat capacity change of unfolding” value [6] does the source give for B9 here?
A: 1.17 kcal/mol/K

Q: And the unfolding free energy [6]?
A: 9.54 kcal/mol

Q: What about the Tm (Thermotoga maritima (strain ATCC 43589 / DSM 3109 / JCM 10099 / NBRC 100826 / MSB8), pH 6, Thermal, CD, sodium phosphate 50 mM, reversible: yes) of the same protein?
A: 101 °C

B10: Elongation factor Ts wild type, P43895 (protein)
chain: MSQMELIKKLREATGAGMMDVKRALEDAGWDEEKAVQLLRERGAMKAAKKADREAREGIIGHYIHHNQRVGVLVELNCETDFVARNELFQNLAKDLAMHIAMMNPRYVSAEEIPAEELEKERQIYIQAALNEGKPQQIAEKIAEGRLKKYLEEVVLLEQPFVKDDKVKVKELIQQAIAKIGENIVVRRFCRFELGA
Q: For B10, which Tm (Thermus thermophilus (strain ATCC 27634 / DSM 579 / HB8), pH 7, Thermal, CD, Phosphate 10 mM, reversible: No) is on record?
A: 115 °C
